According to patent US20040038369A1, “Airway-specific trypsin-like enzymes and method of using the same” (priority 2000, published 2004):

Assays:
PAR-4 = biological target: T1, PAR-4 (Homo sapiens, UniProt Q96RI0); assay: Calcium influx in PAR-4-expressing insect cells; assay type: cell-based; conditions: AST 2 units/ml; trypsin, thrombin 0.1 to 10 units/mL
T1 construct: expressed in transfected cells; host or cells: Sf9 insect cells infected with recombinant baculovirus VL-PAR (pVL1393)
T1 sequence (Q96RI0 18-385): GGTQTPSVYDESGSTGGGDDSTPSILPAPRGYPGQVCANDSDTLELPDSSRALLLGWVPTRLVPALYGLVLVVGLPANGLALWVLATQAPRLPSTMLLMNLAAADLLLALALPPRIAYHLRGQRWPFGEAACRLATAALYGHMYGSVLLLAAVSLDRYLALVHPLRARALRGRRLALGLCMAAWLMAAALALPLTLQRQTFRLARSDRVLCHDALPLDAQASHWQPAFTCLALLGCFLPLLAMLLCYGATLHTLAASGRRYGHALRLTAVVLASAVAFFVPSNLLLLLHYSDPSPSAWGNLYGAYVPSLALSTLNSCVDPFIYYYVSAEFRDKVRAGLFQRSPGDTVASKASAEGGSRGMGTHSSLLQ
Procedure: The above-obtained recombinant baculovirus VL-PAR for expressing the PAR was used to infect 1.0×10^7 Sf9 cells sowed on a 75 cm^2 flask at an MOI=2, and was then left and stationally cultured at 27° C. for 40 hours. After the culture, the infected cells were recovered and then subjected to a calcium influx experiment to-confirm the function of the PAR.
The recovered infected cells (about 5×10^6 cells) were once washed with HEPES-Tyrode buffer solution-Ca^2+ (−) pH 7.4, and then suspended in 5 mL of HEPES-Tyrode buffer solution (containing Fura2-AM, 1 μg/mL) to load the Fura2-AM on the cells at 27° C. for 30 minutes. The suspension was centrifuged at 800 rpm at room temperature for 5 minutes to recover the cells. The cells were twice washed with HEPES-Tyrode buffer solution-Ca^2+ (−) pH 7.4 and then resuspended in 5 mL of HEPES-Tyrode buffer solution-Ca^2+ (−) pH 7.4. The cell suspension was mixed with 5 μL of 1M CaCl2 to give a final concentration of 1 mM CaCl2, and then incubated in a shaded state at room temperature for 5 minutes. The prepared Fura2-AM-loaded infected cells were dispensed into a 96 well plate in a volume of 100 μL/well, further subjected to the dispensation of HEPES-Tyrode buffer solution-C^2+ (+) pH 7.4 in a volume of 80 μL/well, and then assayed with a Fluorescence Drug Screening System (made by Hamamatsu Photonics Co.). […]

[1] = system: Muc5AC mRNA in NCI-H292 cells; assay: Muc5AC mRNA expression in NCI-H292 by real time PCR; assay type: cell-based, human; conditions: HAST 300 mU/mL, 24 hours
Procedure: NCI-H292 cells (purchased from ATCC) were suspended in 10% FCS-containing RPMI-1640 (produced by Gibco Corp.), sowed on a 96 well plate (produced by Falcon Corp.) in a density of 6.0×10^4 cells/cm^2, cultured for 72 hours, subjected to the replacement of the culture solution by RPMI-1640 containing 0.1% of BSA, and further cultured for 24 hours.
Before added to the cells, leupeptin in various concentrations was reacted with 300 mU/mL of HAST on ice for 30 minutes, and further heated at 37° C. Then, the culture solution in the wells was wholly exchanged by the culture medium containing the HAST or leupeptin to start the treatment, and the treatment was carried out for 24 hours. HAST (300 mU/mL) thermally treated at 99° C. for 10 minutes as a control, EGF alone (1 ng/mL), and a combination of EGF (5 ng/mL) with leupeptin (10^−5 M) were also similarly treated. The number of the samples was 3.
An EGF treatment sample was continuously diluted five times to prepare a standard. […]
(§1) For both the Muc5AC and the β-actin, the expression quantities of the samples were relatively compared from the obtained Ct values and the standard straight line. […]
as §1

With “HAST: human airway-specific trypsin-like enzyme; propeptide moiety bound to trypsin-like protein moiety via a disulfide bond” the “Ca2+ influx” value (PAR-4) was “observed” and the Muc5AC gene expression [1] was “promoted”.
